{
  "source": "paper doi:10.1101/2021.07.15.452591",
  "about": "(bioRxiv, 2021)",
  "proteins": {"B1": {"name": "2-aminomuconic 6-semialdehyde dehydrogenase (AmnC), wild type (enzyme, Pseudomonas sp. AP-3, UniProt Q9KWS5 1-491, looked up)", "chain": "MKQYRNFVDGKWVESSKTFQDVTPIDGSVVAVVHEADRDLVDAAVKAGHRALEGEWGRTTAAQRVDWLRRIANEMERRQQDFLDAEMADTGKPLSMAATIDIPRGIANFRNFADILATAPVDSHRLDLPDGAYALNYAARKPLGVVGVISPWNLPLLLLTWKVAPALACGNAVVVKPSEDTPGTATLLAEVMEAVGIPPGVFNLVHGFGPNSAGEFISQHPDISAITFTGESKTGSTIMRAAAEGVKPVSFELGGKNAAVIFADCDFEKMLDGMMRALFLNSGQVCLCSERVYVERPIFDRFCVALAERIKALKVDWPHETDTQMGPLISSKHRDKVLSYFELARQEGATFLAGGGVPRFGDERDNGAWVEPTVIAGLSDDARVVREEIFGPICHVTPFDSESEVIRRANDTRYGLAATIWTTNLSRAHRVSELMRVGISWVNTWFLRDLRTPFGGAGLSGIGREGGMHSLNFYSELTNVCVRIDKESPDV"}, "B2": {"name": "AmnC ΔOD2 (S123G, H124G, L425A) (enzyme, Pseudomonas sp. AP-3, UniProt Q9KWS5 1-491, looked up)", "chain": "B1 chain with S123G, H124G, L425A"}, "B3": {"name": "AmnC ΔOD1 (Δ124-138 and Δ477-491) (enzyme, Pseudomonas sp. AP-3, UniProt Q9KWS5 1-476, looked up)", "chain": "MKQYRNFVDGKWVESSKTFQDVTPIDGSVVAVVHEADRDLVDAAVKAGHRALEGEWGRTTAAQRVDWLRRIANEMERRQQDFLDAEMADTGKPLSMAATIDIPRGIANFRNFADILATAPVDSARKPLGVVGVISPWNLPLLLLTWKVAPALACGNAVVVKPSEDTPGTATLLAEVMEAVGIPPGVFNLVHGFGPNSAGEFISQHPDISAITFTGESKTGSTIMRAAAEGVKPVSFELGGKNAAVIFADCDFEKMLDGMMRALFLNSGQVCLCSERVYVERPIFDRFCVALAERIKALKVDWPHETDTQMGPLISSKHRDKVLSYFELARQEGATFLAGGGVPRFGDERDNGAWVEPTVIAGLSDDARVVREEIFGPICHVTPFDSESEVIRRANDTRYGLAATIWTTNLSRAHRVSELMRVGISWVNTWFLRDLRTPFGGAGLSGIGREGGMHSLNFYSE"}},
  "key": {"crystal structure": {"molecular_target": "the molecule itself", "test": "crystal structure"}, "dynamic light scattering": {"molecular_target": "the molecule itself", "test": "dynamic light scattering"}, "SEC": {"molecular_target": "the molecule itself", "test": "SEC"}},
  "note": "Changes are numbered by the printed parent chain. Names may count otherwise.",
  "data": [
    {"protein": "B1", "values": [
      {"measurement": "stoichiometry N", "setting": "crystal structure", "result": 4}
    ]},
    {"protein": "B2", "values": [
      {"measurement": "stoichiometry N", "setting": "dynamic light scattering", "result": 2},
      {"measurement": "stoichiometry N", "setting": "SEC", "result": "~2"}
    ]},
    {"protein": "B3", "values": [
      {"measurement": "stoichiometry N", "setting": "dynamic light scattering", "result": 2},
      {"measurement": "stoichiometry N", "setting": "SEC", "result": "~2"}
    ]}
  ]
}
